The source of these data is paper PMC3227653 (PLoS ONE, 2011).

First the molecules themselves.
B1: A26.8m (VHH)
VHH: QVKLEESGGGLVQAGGSLRLSCAASERTFSRYPVAWFRQAPGAEREFVCVISSTGTSTYYADSVKGRFTCSRDNAKVTVYLQMNNLKREDTAVYFCAVNSQRTRLQDPNEYDYWGQGTQVTVSS
B2: A20.1m (VHH)
VHH: QVQLVESGGGLAQAGGSLRLSCAASGRTFSMDPMAWFRQPPGKEREFVCAGSSTGRTTYYADSVKGRFTCSRDNAKNTVYLQMNSLKPEDTAVYYCAAAPYGANWYRDEYAYWGQGTQVTVSS
B3: A4.2m (VHH)
VHH: QVKLEESGGGLVQAGGSLRLSCAASGRTFNTLSMGWFRQAPGKEREFVCAVSRSGGSTYYADSVKGRFTCSRDNAKNTVYLQMNSLKPEDTAVYYCAAAATKSNTTAYRLSFDYWGQGTQVTVSS
B4: A5.1m (VHH)
VHH: QVKLEESGGGLVQAGGSLRLSCAASGRTFSMYRMGWFRQAPGKEREFVCVITRNGSSTYYADSVKGRFTCSRDNAKNTVYLQMNSLKPEDTALYYCAATSGSSYLDAAHVYDYWGQGTQVTVSS

The target in this experiment is Clostridium difficile toxin A (Clostridioides difficile …, UniProt P16154). The experiment is described as follows: SPR. To be noted: both partners purified.
In general, Kd refers to the constant that tells how readily two partners part at equilibrium. A low value points to tighter binding. In general, koff refers to a measure of how fast the partners let go of each other. The low end stands for a long-lived complex, the high end for a short-lived complex. What is called kon is the rate constant with which the complex forms. Read a high kon as fast association. The molecule B1 gave a Kd of 28 nM, a koff of 0.028 s⁻¹ and a kon of 1e+06 M⁻¹ s⁻¹.

In turn, B2 displayed a Kd of 9.2 nM, a koff of 0.0059 s⁻¹ and a kon of 640000 M⁻¹ s⁻¹.

The molecule B3 had a Kd of 20 nM, a koff of 0.019 s⁻¹ and a kon of 930000 M⁻¹ s⁻¹.

As to B4, binding was characterised by a dissociation constant (Kd) of 17 nM, the off-rate constant (koff) stood at 0.016 s⁻¹ and the kon worked out at 950000 M⁻¹ s⁻¹.
